From the supplement of paper PMC9170038 come the findings set out here.

In data set [1] the test system is MS2 coat protein. The experiment in a line: apparent KD of MS2 coat protein, switch ON state; designed switch direction (-1 OFF switch, 1 ON switch): -1; higher = weaker reporter binding. Particulars: FMN input: 0 or 200 uM; Eterna round: R93 (includes R88 designs). In short, it runs like this: (§1)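 Illumina sequencing clusters served as templates for on-chip transcription of the designed RNA switches. SNAP-549-labelled MS2 coat protein was then titrated in twofold steps from 0.7 or 1.5 nM to 3 µM, allowing 0.8–1.5 h per step at first and 10–20 min per step later. The buffer held 100 mM Tris-HCl pH 7.5, 80 mM KCl and 4 mM MgCl2, without or with constant ligand. Apparent KD is the median per design of normalised cluster binding-curve fits.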

Data set [2] concerns MS2 coat protein. The data set can be described thus: apparent KD of MS2 coat protein, switch OFF state (with FMN for OFF switches, without FMN for ON switches); designed switch direction (-1 OFF switch, 1 ON switch): -1; higher = weaker reporter binding. Particulars: FMN input: 0 or 200 uM; Eterna round: R93 (includes R88 designs). In short, it runs like this: as §1
Data set [3] concerns MS2 coat protein. The experiment in a line: apparent KD of MS2 coat protein; designed switch direction (-1 OFF switch, 1 ON switch): 1; higher = weaker reporter binding. In outline: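 Stalled E. coli RNA polymerase transcribed designed RNA switches on Illumina chips, which were then titrated with SNAP-549-labelled MS2 coat protein, doubling from 0.7 or 1.5 nM to 3 µM. Steps lasted from 0.8–1.5 h at the lowest concentration to 10–20 min at the highest. The apparent KD is each design's median over clusters of curve-fitted normalised fluorescence.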

“AAAAAACAUGAGGAUCACCCAUGUAAGGAUAUCUAAAAUAAAAGAAAAAUAAAGAAAAGGAGAAGGUAUAUGGA [JL wbt mod 24]”: the “apparent KD of MS2 coat protein” value was 27.1 nM with MS2 coat protein [1] and 37.3 nM in the data set with MS2 coat protein [2].
For “AAAAAACAUGAGGAUCACCCAUGUAAGGAUAUGCUAAAAAACGCAAAAAAAGCGAAUAGCAGAAGGUACAAAAG [Mat - Exclusion 1 - Eli mod - D81]”, in that order: 36.4 nM and 70.5 nM.
Turning to “AAAAAACAUGAGGAUCACCCAUGUAAGGAUAUGCUGAAAAACACGGAAAAAACGUGCAGCAGAAGGUACAAAGA [Mat - Exclusion 1 - Eli mod - D96]”, the “apparent KD of MS2 coat protein” value in the data set on MS2 coat protein [1] amounted to 18.3 nM; with MS2 coat protein [2] it was 39.9 nM.
As to “AAAAAACAUGAGGAUCACCCAUGUAAGGAUAUGUAAAACCCAUAUAAAAAGGGAAAAAACAGAAGGUGCAAAAA [wbt round 1 mod 6]”, the “apparent KD of MS2 coat protein” value in the data set on MS2 coat protein [1] came to 35.1 nM; with MS2 coat protein [2], 30.4 nM.
For “AAAAAACAUGAGGAUCACCCAUGUAAGGAUAUGUAAAAUAAAAGAAAAAUAAAGAAAAGCAGAAGGUACAUGAA [JL wbt mod 14]”, in that order: 37 nM and 60.5 nM.
“AAAAAACAUGAGGAUCACCCAUGUCAGGAUAUCCGGUUCUUAAAAAAAAAGAGGCGUUGGAGAAGGGACAUUCC [Chica Displaced 12 - Jieux - Exclusion 1]”: the “apparent KD of MS2 coat protein” value in the data set on MS2 coat protein [1] is 26.7 nM; in the data set with MS2 coat protein [2], 41.7 nM.
On to “AAAAAACAUGAGGAUCACCCAUGUCAGGAUAUCGUAAAAAAAAAAAAAAAAAAAAAUGCGAGAAGGGACUGGAA [exclusion1-cac2]”, for which the “apparent KD of MS2 coat protein” value is 86.9 nM with MS2 coat protein [1] and 94.5 nM in the data set with MS2 coat protein [2].
As for “AAAAAACAUGAGGAUCACCCAUGUCAGGAUAUCUGUAUUCAAUCCUCGGAUUGAAUACAGAGAAGGGACAUAAA [Ex1: 605]”, the “apparent KD of MS2 coat protein” value with MS2 coat protein [1] is 46.2 nM; in the data set with MS2 coat protein [2], 126 nM.
For “AAAAAACAUGAGGAUCACCCAUGUCAGGAUAUCUGUAUUCAAUCCUCGGAUUGAAUACAGAGAAGGGACAUGGG [Ex1: 601]”, in that order: 22.6 nM and 18 nM.
The like results for “AAAAAACAUGAGGAUCACCCAUGUCAGGAUAUGCGAAGCAAAAAAAAAAAAAAGCGAAGUAGAAGGGACUAAAA [Exclusion1 Malc#6]” were, in that order, 24.4 nM and 40.1 nM.
For “AAAAAACAUGAGGAUCACCCAUGUCAGGAUAUGCUCAACAAUAUUCCAAAAAAGAACGGUAGAAGGGACAGGAA [Bilbo Confounded 25 - Jieux - Exclusion 1]”, in that order: 30.4 nM and 22.3 nM.
For the sequence “AAAAAACAUGAGGAUCACCCAUGUCAGGAUAUGCUCAGCAAUAUUCCAAUAAAGAACGGUAGAAGGGACAGGAA [Bilbo Confounded 24 - Jieux - Exclusion 1]”, the “apparent KD of MS2 coat protein” value with MS2 coat protein [1] was 24.9 nM; in the data set with MS2 coat protein [2], 26.6 nM.
Regarding “AAAAAACAUGAGGAUCACCCAUGUGAGGAUAUCCAGAAGGGAAUAAAAUAACUCGAAAGGAGAAGGCGCAAAAA [Ex 1 May 34]”, the “apparent KD of MS2 coat protein” value in the data set on MS2 coat protein [1] was 31.8 nM; with MS2 coat protein [2], 26.2 nM.
The like results for “AAAAAACAUGAGGAUCACCCAUGUGAGGAUAUCCUGAAGGGAAUAAAAUAACUCGAAAGGAGAAGGCGCAAAAA [Ex 1 May 32]” were, in that order, 35.2 nM and 33 nM.
For “AAAAAACAUGAGGAUCACCCAUGUGAGGAUAUGAAAAUACUAAGACAACUGUAAUCAAUCAGAAGGCACAACAA [JR_Exc--1_Sub1208]”, in that order: 18.8 nM and 19.6 nM.
As to “AAAAAACAUGAGGAUCACCCAUGUGAGGAUAUGCGAAAAUAAAAUAAAAUAAUAAAAAGCAGAAGGCACAAAAA [58%, Sh'dynasty, 1]”, the “apparent KD of MS2 coat protein” value was determined as 67.7 nM with MS2 coat protein [1] and 89.3 nM in the data set on MS2 coat protein [2].
The like results for “AAAAACCGAGGAUAUACAUGAGGAUCACCCAUGUAAAAAAAAAAAAAGGGAAAAAAAAGUAGAAGGCGGAAAAA [Djehuti Sekhemresementawy]” were, in that order, 26.2 nM and 34.8 nM.
On to “AAAAAGAGAGGAUAUACAUGAGGAUCACCCAUGUGAAAAAAAAAAAAAGGGAAAAGAUGUAGAAGGCUCAAAAA [65%, Moding Exclusion3-cac2, 16]”, for which the results for the “apparent KD of MS2 coat protein” value in the data set on MS2 coat protein [1] and in the data set with MS2 coat protein [2] were 30.4 nM and 32.1 nM, respectively.
For “AAAAAGCGAGGAUAUACAUAGCUAAGACAUGUAAGCGAAAAACAUGAGGAUCACCCAUGUAGAAGGCGCAAAAA [Exclusion2-02]”, in that order: 16.8 nM and 16.5 nM.
Regarding “AAAAAGCGAGGAUAUACUAAAAAACCUCAAAAAAAAAAAAAACAUGAGGAUCACCCAUGUAGAAGGCGCAAAAA [JR_Exc002_Sub001]”, the “apparent KD of MS2 coat protein” value turned out to be 86.1 nM in the data set with MS2 coat protein [1] and 113 nM in the data set on MS2 coat protein [2].
The like results for “AAAAAGCGAGGAUAUGCAAGAAAAAAAAAAAAAAAAAAGGGACAUGAGGAUCACCCAUGUAGAAGGCGCAAAAA [Diamond 65]” were, in that order, 54.9 nM and 38 nM.
For “AAAAAGCUAGGAUAUACAUGAGGAUCACCCAUGUAAAAAAAAAAAAAGGGAAAAAAAAGUAGAAGGAGCAAAAA [Merankhre Mentuhotep VI]”, in that order: 18.4 nM and 26 nM.
As to “AAAAAGGCAGGAUAUACAUGAGGAUCACCCAUGUAAAAAAAAAAAAAAGGGAAAAAAAGUAGAAGGGCCAAAAA [Along]”, the “apparent KD of MS2 coat protein” value came to 31.1 nM in the data set with MS2 coat protein [1] and 53.4 nM in the data set on MS2 coat protein [2].
Regarding “AAAAAGGCAGGAUAUACAUGAGGAUCACCCAUGUAAAAAAAAACAAGAGAAAAAAAAUGUAGAAGGGCCAAAAA [Ex3 Malc#3]”, the “apparent KD of MS2 coat protein” value in the data set on MS2 coat protein [1] was determined as 26.8 nM; in the data set on MS2 coat protein [2] it was 26 nM.
The like results for “AAAAAGGCAGGAUAUGCAUACACACAAAAAAAAAAACUGGGACAUGAGGAUCACCCAUGUAGAAGGGCCAAAAA [Dora Explored 8 - Jieux - Exclusion 2]” were, in that order, 151 nM and 54 nM.
On to “AAAAAGGGAGGAUAUACAUGAGGAUCACCCAUGUAACAGACGAAAAAGAGUCUGAAAAGUAGAAGGCCCAAAAA [65%, Moding Exclusion3-cac2, 7]”, for which the entries for the “apparent KD of MS2 coat protein” value with MS2 coat protein [1] and with MS2 coat protein [2] were 24.7 nM and 19.2 nM, respectively.
The like results for “AAAAAGGGAGGAUAUACGAAAUAGGGAAACCUAAAAAAGGGACAUGAGGAUCACCCAUGUAGAAGGCCCAAGAA [Clint Eastwood 64% 6]” were, in that order, 39 nM and 223 nM.
Take “AAAAAGGGAGGAUAUGCAUACACAAAAAAAAAAAAAAAAAAACAUGAGGAUCACCCAUGUAGAAGGCCCAAAAA [Dora Explored 3 - Jieux - Exclusion 2]”: the “apparent KD of MS2 coat protein” value in the data set on MS2 coat protein [1] turned out to be 37.4 nM; in the data set on MS2 coat protein [2], 28.9 nM.
The like results for “AAAAAGUCAGGAUAUACAAAAGUGCGAAAGCACAAAAAGGGACAUGAGGAUCACCCAUGUAGAAGGGACAAGAA [Married to this design, 61% 4]” were, in that order, 73.3 nM and 124 nM.
With “AAAAAGUCAGGAUAUGCGAAGGCGUCUGAUAGACGAGGCUAGCAGAAGGGACAUGAGGAUCACCCAUGUAAAAA [Mat - Exclusion 4 - Rerun - D81]”, the “apparent KD of MS2 coat protein” value with MS2 coat protein [1] worked out at 50.5 nM; with MS2 coat protein [2], 45 nM.
The like results for “AAAAAGUCAGGAUAUGCGAAGGCGUCUGAUAGACGAGGCUAGCAGAAGGGACAUGAGGAUCACCCAUGUAAAAA [Mat - Mod of Nando]” were, in that order, 50.5 nM and 45 nM.
For “AAAAAGUCAGGAUAUGCGAAGGCGUCUGAUAGACGAGGCUAGCAGAAGGGACAUGAGGAUCACCCAUGUGAAAA [Mat - Mod of Nando 64% 1]”, in that order: 57.9 nM and 143 nM.
Regarding “AAAAAGUCAGGAUAUGUCAAAAGUCACAAAAGUGACAAAAGACAGAAGGGACAUGAGGAUCACCCAUGUGGAAA [Mod of Eli - Late G segment 1]”, the results for the “apparent KD of MS2 coat protein” value in the data set with MS2 coat protein [1] and with MS2 coat protein [2] were 89.3 nM and 134 nM, respectively.
Take “AAAAAGUGAGGAUAUACAUGAAAAAAAAAAAAAAAAAAAAAACAUGAGGAUCACCCAUGUAGAAGGCGCAAAAA [GC GU GC sandwich]”: the “apparent KD of MS2 coat protein” value was 31.5 nM in the data set with MS2 coat protein [1] and 43.1 nM in the data set with MS2 coat protein [2].
On to “UUGUUUCGUCAUUAACAUGAGGAUCACCCAUGUCUUGGCCCAGAGGAUAUGCAUGUUUGAUUGUAGCAGAAGGCUGAUUGUUGU [JR_SSNG3_Sub031] (Eterna round: R96, puzzle: Same State NG 3)”, for which the “apparent KD of MS2 coat protein” value in the data set with MS2 coat protein [3] (input ligand: FMN 200 uM) came to 25.9 nM; in the data set with MS2 coat protein [3] (input ligand: microRNA oligo, concentration not stated), 34.9 nM; in the data set on MS2 coat protein [3] (input ligand: none), 42.5 nM.
For “UUUAGUUGCGGGCAGGAUAUGUAUUAAAAUACAUGAGGAUCACCCAUGUGAGGUCAUAAAGACCUACAGAAGGGCCAAUCGCGAC [Laonerce - 16] (puzzle: Same State 2)”, the “apparent KD of MS2 coat protein” value is 16.5 nM in the data set with MS2 coat protein [3] (Eterna round: R95, input ligand: FMN 200 uM); 64.8 nM in the data set on MS2 coat protein [3] (Eterna round: R95, input ligand: microRNA oligo, concentration not stated); 66.2 nM in the data set on MS2 coat protein [3] (Eterna round: R95, input ligand: none).
